Measured values taken from the supplement of paper PMC10126150.
± gives the standard deviation of the averaged measurements.

These sequences were tested on ATP (assay: switch fluorescence ratio, 500 uM ATP over buffer (Cy3 cluster intensity, sum of 5 cycles each) (fold (ratio)); higher = stronger signal-on switching upon ATP binding; sequences stand for … in TCGTCGGCAGCGTCAGATGTGTATAAGAGACAGTTTTTTTTTTTTTTTTTTTTTTTTT…TC). Conditions: aptamer strand: ATP DNA aptamer (quencher-CACCTGGGGGAGTATTGCGGAGGAAGG + anchor), 100 nM annealed; ATP concentration: 500 uM.
Procedure, shortened: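 The quencher-labelled ATP aptamer, at 100 nM, was annealed to Cy3-labelled switching-strand clusters on a modified Illumina MiSeq flow-cell. The clusters were imaged in selection buffer, then after 15 min with 500 uM ATP at 22 °C, and this buffer/ATP cycle ran five times with NaOH stripping and re-annealing between runs. Per-cluster fluorescence ratios, summed target-cycle over summed buffer-cycle Cy3 intensity, were averaged per switch-domain sequence. Clusters outside 100-1000 RFU were excluded.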
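Also: ATP exposure 15 min at 22 °C before imaging.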

Row | Sequence | switch fluorescence ratio
1 | ATAGTTAAAC | 1.01 ± 0.012
2 | ATAGTTTG | 0.97739 ± 0.00022
3 | ATATAAGCGG | 1.02 ± 0.047
4 | ATATAATGAT | 1.02 ± 0.02
5 | ATATAATTTG | 1.04 ± 0.055
6 | ATATACGAGT | 1.002 ± 0.005
7 | ATATACGGTA | 1.15 ± 0.03
8 | ATATAGAGGG | 0.9958 ± 0.0031
9 | ATATAGGATT | 0.9893 ± 0.0068
10 | ATATAGTTGT | 0.999 ± 0.016
11 | ATATATGAAA | 0.998 ± 0.024
12 | ATATATGTAA | 0.994 ± 0.023
13 | ATATATGTAC | 1.085 ± 0.0016
14 | ATATATTAAA | 0.981 ± 0.03
15 | ATATCATGTT | 0.995 ± 0.036
16 | ATATCCGGTT | 1 ± 0.041
17 | ATATCCGTCA | 1.05 ± 0.051
18 | ATATCCTTCA | 1.35 ± 0.43
19 | ATATCGGTGT | 0.991 ± 0.029
20 | ATATCGTATT | 1 ± 0.013
21 | ATATCTAGTT | 0.989 ± 0.084
22 | ATATCTATGG | 0.994 ± 0.025
23 | ATATCTGCTT | 0.978 ± 0.035
24 | ATATGACTTT | 1.01 ± 0.052
25 | ATATGAGGGA | 1.01 ± 0.026

Row | Sequence | switch fluorescence ratio
26 | ATATGAGTTT | 1.01 ± 0.017
27 | ATATGATATC | 1.03 ± 0.062
28 | ATATGCAGGG | 0.993 ± 0.00024
29 | ATATGCGATG | 0.97 ± 0.051
30 | ATATGCGGGC | 1.02 ± 0.05
31 | ATATGCGTCG | 0.95 ± 0.027
32 | ATATGGACGC | 1.01 ± 0.046
33 | ATATGGCACT | 1.008 ± 0.0034
34 | ATATGGGAAG | 1 ± 0.048
35 | ATATGGGAGG | 0.969 ± 0.016
36 | ATATGGGGAC | 1.01 ± 0.024
37 | ATATGTATCA | 1.06 ± 0.033
38 | ATATGTGGAG | 0.987 ± 0.011
39 | ATATTATCAA | 1 ± 0.012
40 | ATATTATTAA | 0.975 ± 0.014
41 | ATATTCGCAC | 1.19 ± 0.063
42 | ATATTCGCGG | 1.01 ± 0.015
43 | ATATTCTGAA | 0.976 ± 0.017
44 | ATATTGAAAT | 1.01 ± 0.033
45 | ATATTGAGCT | 0.976 ± 0.022
46 | ATATTGATAT | 1.01 ± 0.021
47 | ATATTGGAAG | 1.011 ± 0.01
48 | ATATTGGAAT | 1.02 ± 0.024
49 | ATATTGGGAG | 0.99 ± 0.025
50 | ATATTGGGGG | 0.998 ± 0.025

Row | Sequence | switch fluorescence ratio
51 | ATATTGTCAT | 0.962 ± 0.015
52 | ATATTTATTG | 0.998 ± 0.04
53 | ATATTTGCTT | 1 ± 0.025
54 | ATATTTGTAT | 1 ± 0.012
55 | ATATTTGTCA | 1.03 ± 0.022
56 | ATCAAATATG | 1.01 ± 0.008
57 | ATCAAATGTA | 0.981 ± 0.024
58 | ATCAAGGACG | 1.02 ± 0.05
59 | ATCAATCCTT | 1.03 ± 0.029
60 | ATCAATGAAC | 1.05 ± 0.018
61 | ATCACAATCA | 1.02 ± 0.023
62 | ATCACACATT | 1.02 ± 0.032
63 | ATCACGTGAT | 1.01 ± 0.023
64 | ATCACTTGAC | 1.104 ± 0.0078
65 | ATCAGCGCGG | 1.013 ± 0.0027
66 | ATCAGGGCAA | 1.26 ± 0.18
67 | ATCATAATGT | 0.983 ± 0.032
68 | ATCATCTTCG | 1.02 ± 0.015
69 | ATCATGCGGG | 0.99749 ± 7e-05
70 | ATCATGGCAC | 1.04 ± 0.025
71 | ATCATGGCTT | 1.03 ± 0.011
72 | ATCATGGGGG | 0.986 ± 0.022
73 | ATCATGGTGC | 1.13 ± 0.074
74 | ATCATGTCTA | 1.04 ± 0.047
75 | ATCATGTTAT | 0.986 ± 0.011

Row | Sequence | switch fluorescence ratio
76 | ATCATTCGGT | 0.9964 ± 0.0074
77 | ATCCAAGTAA | 1.04 ± 0.021
78 | ATCCCAGGTA | 2.009 ± 0.0073
79 | ATCCCGGGAT | 1 ± 0.022
80 | ATCCGAGGAG | 1.05 ± 0.012
81 | ATCCGATACG | 1.18 ± 0.023
82 | ATCCGCGTAG | 2.17 ± 0.017
83 | ATCCTCGGGA | 1.01 ± 0.034
84 | ATCCTTTAAC | 1 ± 0.032
85 | ATCCTTTCAG | 0.995 ± 0.016
86 | ATCGAAAAAC | 1.01 ± 0.05
87 | ATCGAAGGGA | 0.985 ± 0.041
88 | ATCGAATATT | 0.983 ± 0.031
89 | ATCGAGCATG | 1.03 ± 0.051
90 | ATCGAGTAGG | 1.008 ± 0.005
91 | ATCGATGAAT | 0.995 ± 0.015
92 | ATCGATTATC | 0.988 ± 0.021
93 | ATCGATTGAT | 1.02 ± 0.011
94 | ATCGATTTTA | 0.978 ± 0.056
95 | ATCGCATGGG | 1.03 ± 0.013
96 | ATCGCGGGCA | 1.02 ± 0.027
97 | ATCGCGGGGG | 1.009 ± 0.0021
98 | ATCGCGGTGC | 1.64 ± 0.33
99 | ATCGCTATGG | 1.125 ± 0.0017
100 | ATCGCTGGTA | 1.02 ± 0.031

Row | Sequence | switch fluorescence ratio
101 | ATCGGAAAGC | 1.07 ± 0.028
102 | ATCGGAATTG | 1.01 ± 0.015
103 | ATCGGAGACA | 0.9681 ± 0.0067
104 | ATCGGAGGCA | 1.0107 ± 0.00084
105 | ATCGGCAGGC | 1.22 ± 0.075
106 | ATCGGCGGGG | 0.995 ± 0.031
107 | ATCGGGACGA | 0.955 ± 0.0099
108 | ATCGGGCGGG | 1.02 ± 0.02
109 | ATCGGGCTGC | 1 ± 0.038
110 | ATCGGGGAGG | 1.01 ± 0.0081
111 | ATCGGGGCAT | 0.98 ± 0.059
112 | ATCGGGGGAA | 1.05 ± 0.062
113 | ATCGGGTAAG | 1.01 ± 0.024
114 | ATCGGGTCCA | 0.979 ± 0.028
115 | ATCGGTGGGA | 0.992 ± 0.0031
116 | ATCGGTGTTG | 1.02 ± 0.035
117 | ATCGGTTTTG | 1.01 ± 0.021
118 | ATCGTACATA | 1.12 ± 0.064
119 | ATCGTATTAC | 1.46 ± 0.041
120 | ATCGTCCCTT | 0.986 ± 0.022
121 | ATCGTCGGGA | 0.977 ± 0.02
122 | ATCGTGCCGT | 1.01 ± 0.041
123 | ATCGTGGGTG | 0.984 ± 0.015
124 | ATCGTGTGAG | 1.02 ± 0.015
125 | ATCTAAAGTT | 1.023 ± 0.0016

Row | Sequence | switch fluorescence ratio
126 | ATCTAACCGA | 1.06 ± 0.026
127 | ATCTAGGGTT | 0.995 ± 0.022
128 | ATCTATGGTT | 0.9669 ± 0.0036
129 | ATCTCAGTGT | 0.971 ± 0.04
130 | ATCTCGGTTG | 1.019 ± 0.0085
131 | ATCTCTCATA | 1.01 ± 0.038
132 | ATCTCTGAAG | 0.995 ± 0.013
133 | ATCTGGACTA | 0.984 ± 0.033
134 | ATCTGGATGG | 0.996 ± 0.03
135 | ATCTGGGGTA | 0.972 ± 0.034
136 | ATCTGTATCC | 1.05 ± 0.04
137 | ATCTGTGGTT | 0.978 ± 0.023
138 | ATCTTAGTTT | 1 ± 0.025
139 | ATCTTCAGGT | 0.995 ± 0.0013
140 | ATCTTCTAAG | 1.02 ± 0.03
141 | ATCTTCTTAG | 0.977 ± 0.051
142 | ATCTTTAAGT | 0.993 ± 0.015
143 | ATCTTTGGTG | 1.03 ± 0.022
144 | ATCTTTGTGT | 1.01 ± 0.043
145 | ATGAAAAGGG | 1 ± 0.022
146 | ATGAAAAGGT | 0.976 ± 0.013
147 | ATGAAAATCA | 1.01 ± 0.019
148 | ATGAAAATCC | 1.03 ± 0.021
149 | ATGAAAGGTT | 0.975 ± 0.021
150 | ATGAAATAGG | 0.98 ± 0.031

Row | Sequence | switch fluorescence ratio
151 | ATGAAGAGCG | 0.994 ± 0.015
152 | ATGAAGAGGG | 0.997 ± 0.045
153 | ATGAAGTAAT | 1 ± 0.023
154 | ATGAAGTGAA | 1 ± 0.034
155 | ATGAATAAGG | 0.983 ± 0.028
156 | ATGAATATGC | 1.04 ± 0.043
157 | ATGAATGGGG | 1.01 ± 0.072
158 | ATGAATTGGT | 1.01 ± 0.019
159 | ATGAGACGTG | 1.04 ± 0.037
160 | ATGAGCATCT | 0.996 ± 0.01
161 | ATGAGGACCC | 0.982 ± 0.022
162 | ATGAGGAGGT | 0.979 ± 0.0036
163 | ATGAGGGGCT | 0.986 ± 0.037
164 | ATGAGGGGTT | 0.995 ± 0.032
165 | ATGAGGGTAG | 1.02 ± 0.034
166 | ATGAGGGTTC | 0.981 ± 0.044
167 | ATGAGGTGCG | 0.972 ± 0.035
168 | ATGAGGTGCT | 1.02 ± 0.032
169 | ATGAGGTTAG | 0.947 ± 0.065
170 | ATGAGTATTT | 0.979 ± 0.046
171 | ATGAGTGCCA | 0.9844 ± 0.0013
172 | ATGAGTTGGG | 0.999 ± 0.024
173 | ATGAGTTGTA | 1.01 ± 0.012
174 | ATGAGTTGTG | 1 ± 0.017
175 | ATGATAAGTA | 1.006 ± 0.0034

Row | Sequence | switch fluorescence ratio
176 | ATGATAGTAA | 1.009 ± 0.0027
177 | ATGATAGTCG | 0.993 ± 0.013
178 | ATGATATGGG | 0.985 ± 0.026
179 | ATGATCAGGG | 1.009 ± 0.01
180 | ATGATCTCGT | 0.968 ± 0.032
181 | ATGATGAATG | 0.975 ± 0.054
182 | ATGATGGAAG | 0.982 ± 0.015
183 | ATGATGGACG | 1.03 ± 0.062
184 | ATGATGGCAA | 1.03 ± 0.027
185 | ATGATGGCTT | 1.006 ± 0.0027
186 | ATGATGGGCC | 1 ± 0.041
187 | ATGATGGGGC | 0.9536 ± 0.0011
188 | ATGATGTGGG | 1.011 ± 0.0087
189 | ATGATTACGA | 1.03 ± 0.026
190 | ATGATTATGA | 1.04 ± 0.029
191 | ATGATTTATT | 1 ± 0.011
192 | ATGATTTCTA | 0.986 ± 0.024
193 | ATGCAAGGCA | 1.02 ± 0.04
194 | ATGCAATCTT | 1.11 ± 0.06
195 | ATGCACTGGA | 0.9969 ± 0.0075
196 | ATGCAGACGA | 1.1 ± 0.013
197 | ATGCAGGAGT | 0.98647 ± 0.00087
198 | ATGCAGTATG | 0.967 ± 0.025
199 | ATGCATAGGC | 0.983 ± 0.011
200 | ATGCATGGAC | 1.11 ± 0.12
